# According to the RNAGym collection of RNA variant scans (doi:10.1073/pnas.2313332121):
# B1: TPR t1 (parent)
# chain: GACCAAUCUGCCCUCAGAGCUCGAGAACAUCUUCGGAUGCAGAGGAGGCAGGCUUCGGUGGCGCGAUAGCGCCAACGUCCUCAACCUCCAAUGCAUCCCACCACAUGAUGAUGCCUGAAGAGCCUUGGUUUUUUG
# Variants of: B1
# Test: polymerase ribozyme fitness, log enrichment relative to wild type (log ratio); higher = more active; in vitro selection for triplet polymerase activity
# In short: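 Streptavidin-bead capture of gel-excised extended constructs, followed by RT-PCR, closed a single triplicate in vitro selection round. That round began by annealing PCR-built, transcribed mutant libraries of each subunit of a heterodimeric triplet polymerase ribozyme with a biotinylated primer, the partner subunit and triplets, then incubating them frozen at −7 °C. After Illumina sequencing of inputs and outputs, genotypes needed ≥10 input reads and ≥1 read per output. Fitness is the base-2 logarithm of genotype enrichment over wild-type enrichment, using inverse-variance-weighted replicate averages.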
row,Variant,polymerase ribozyme fitness (log ratio)
1,U9G C97G C104U,-2.99
2,U9G G71A,-0.592
3,U9G G60C U116A,-1.45
4,G10A A18U C70G G77A U87A C115A,-7.14
5,G10A G42A A43U C64U,-1.45
6,U9G G93A G128A U129G,-1.96
7,U9G U116A,-0.815
8,G10A U55A G60C G122A,-0.167
9,G10A A50G C64U C115G,-3.37
10,G10A U38G,0.0174
11,G10A A37U C53A C56G C85U G110U,-2.81
12,U9G U21A G127A,-0.983
13,U9G G39A C86U G110U,-2.18
14,U9G U78C A121U,1.6
15,U9G G51U G63C,-3.1
16,U9G A46C U87A G93C C115A U116C A119C,-3.97
17,U9G G23A G60A G71C G113U G135C,-5.28
18,U9G G23U A43U G71A G110C C124G U126G,-8.22
19,G10A C11U C40U C97A G120A,-4.4
20,U9G G107U,-3.93
21,U9G G48A A111G,0.633

row,Variant,polymerase ribozyme fitness (log ratio)
1,G10A U38G G48C C79A,-4.53
2,G10A C56G C82G C115G A121U,-0.467
3,G10A A18U A118U,-1.34
4,U9G G69U,0.642
5,U9G G63U,-0.815
6,U9G C15U U21C A83C,-0.505
7,G10A G61A A91C C123U,0.979
8,G10A G45C C56G C72U,-2.53
9,G10A C40A A50U U78A,-4.41
10,U9G C11A U78C,-0.41
11,U9G A83C,0.502
12,U9G C12A G42C G61C C115U,-3.63
13,G10A G69U U78C A95G C115U,0.452
14,G10A C11A A18C G42C G44A C101A,-4.26
15,U9G U59C C101U,-0.449
16,G10A C13U C15U C79A A100U C124G U131G,-0.0361
17,G10A C11A G42U G48A A91G C115U,-2.2
18,G10A A41C G61U U92A U133C,-0.847
19,G10A A29G G113A U130A,-3.73
20,U9G A46C,-0.961
21,G10A C72G U96A C104U,-0.61

row,Variant,polymerase ribozyme fitness (log ratio)
1,G10A U59C G61A A83G C114G C115U,-7.23
2,U9G C97A A111G,-6.78
3,U9G G19A G110C U112C C123G C124G,-7.8
4,G10A U81A G110A U129A,-5.01
5,U9G C34A C73A G120C,-0.727
6,G10A G39U,-0.557
7,G10A C13A C64A U112A,-7.66
8,U9G A121G U131A,1.98
9,U9G G110A,-0.713
10,U9G G110U,-1.36
11,G10A A66G,-1.17
12,G10A A74G A90U G107U C115U,-7.83
13,U9G G47C C80U,-3.21
14,U9G G61A C76G,-4.18
15,U9G C62U A74U,-0.576
16,U9G C70A C85U A90G C102A,-4.92
17,U9G G36A U87C C99U,-3.41
18,G10A G17A A37G G42U C53A C64U A100U,-5.75
19,G10A C11G G71A,-0.829
20,U9G G47A,-1.81
21,U9G C11A A18G A41U U78G,-4.42

row,Variant,polymerase ribozyme fitness (log ratio)
1,U9G G69U G107U,-2.73
2,G10A C13A C94U U131A,-1.56
3,U9G C53A,0.283
4,G10A C12A A29G G52U C56A G57C,-2.57
5,U9G C56G,-0.492
6,U9G G10C A29U G42U A43G A46C C94U,-4.04
7,G10A G71U U87C,-0.267
8,U9G G42U A121C,0.979
9,U9G C31G U87A C114A,-5.66
10,G10A C97G,-3.95
11,U9G G61A A66U C82A,-1.09
12,U9G C64U,0.223
13,G10A C72A,0.427
14,G10A C72U,-0.532
15,U9G U92A U96G U109A,-5.59
16,G10A G60A C82A C94U C123A,1.22
17,U9G C11A U54G,-0.122
18,G10A C53A C72U,0.298
19,G10A A37U G71C C104U,-0.936
20,G10A G61U C86U U92C G93A,-2.24
21,G10A A27C C56A G57A C72U U78G G93C,-4.76
